test: soluble on expression in E. coli; label from the status in PepcDB or PDB records

Sequence	soluble on expression in E. coli
METACERLHVAQETQMQLIEKSSDKLQDHILYWTAVRTENTLLYAARKKGVTVLGHCRVPHSVVCQERAKQAIEMQLSLQELSKTEFGDEPWSLLDTSWDRYMSEPKRCFKKGARVVEVEFDGNASNTNWYTVYSNLYMRTEDGWQLAKAGADGTGLYYCTMAGAGRIYYSAFGDEAARFSTTGHYSVRDQDRVYAGVSSTSSDFRDRP	soluble
METAKEMTRESLPIKCLEAVILGIYLTNGQPSIERFPISFKTYFSGNYFHHVVLGIYCNGRYGSLGMSRRAELMDKPLTFRTLSDLIFDFEDSYKKYLHTVKKVKIGLYVPHEPHSFQPIEWKQLVLNVSKMLRADIRKELEKYARDMRMKGLCSH	soluble
METAVEVRAPAAAAWELLTDTRRWSEWGPSVSGVECPERFIGPGTIGWVRTVVGLRLPFRITEFEPGRRWCWSVAGIPATGHRVEPLGQERCRVVFEVPMPAAPYLAVCRVAALRIRSILEGLEHHHHHH	not soluble
METEDHAFRIEDIFPFLDPYVSKWFDINYRSLTEPQKYAIPFIHEGRNVLVSSPTGTGKTLTAFLSIINELFMLARSGKLEDKIYCVYISPLKALANDVNKNLRAPLEGIYKIADEDGINLPKIRVSVRSGDTSEGERQKMARKPPHILITTPESFSLTLSSPRMRENLRDVKYVIIDEIHEISSTKRGSLLSANMERLEALRPGILRIGLSATQSP	not soluble
METIKISEQELINALCIYIAEKRQVGPEEVLVELMYDDDYGFSAEVEVNGRQQILIQANLIEALRLLLDREYNVNPFAARLQLELDDEEGIYALAKFNNSDD	not soluble
METKILYQKVSADLKRRILDGDYEVGGLIPSEGELERYYQVSKITIRKAVEVLVSEGYLEKKSGIGTRVISNDLFNKLTQTQSFTATVGQQGKLTKELIKIERVPAVPALLPSESQGTMLRIKRRYLLDGKPFAVVDHYLPNTLVPTKLTALRHRSLYKILQENGQTITHFQDKFSAVTLADSERALLESQTPLAIRRERKGYDGHQRLVEFSIATYQTDVVPYQINYDVL	not soluble
METKYRKPFVYEFITEKEVMNAANDLVKKGIEQKDIYVLTHEKERTDRIADNADVNTIGIKEEGLGTSIINVFQKTGDQLRNKMQELGLNEEEANFYEEKLDEGKILLFVKDLERVGEWLHERRCMYSI	not soluble
METLLLVQLFHELALKGKNRPFFLKRAKAHVRRALKGLGVALEGEWPMALLFRLPEEAWPEAKARLQDTLGVERFARVHRTPPDLEALKAALEKALEGQAFGSFRITAKRSDKAFPLTSPEIERALGAFVKGKTGAPVRLKGAEREFVVRVLPGAALLEVERHPGPGGLPPGVSGRVVALLSGGIDSPVAAYRLMRRGAEVVLVHFHPFPLLSGASREKAKALAERLARFQHRLRLHLVPFSEVQRHIIVEAPTAYRVVLYRRYMLRIAEAIAREEGALALCTGDSLGQVASQTLENLHAVNQAATLPVFRPLIGWDKEEIVAEAQRIGTYATSILPDEECCTLFAPKHPVTRARLEVVLETEARLPTEELLALALKEREVLTYTWPGKPLPEEPEGAFIMEHGPA	soluble
METSMRYTSNSKSMKIHAKEKVPVNSKTHLQLHGELDTGTGAPSYFCAMIRHFFPEASTGLGVGLHYDKRQKLRCLVRGKKEFPVRADKRVTFNIKGRCDIDQDLNQKNPKGAAEFAWNIMDFKEDQDVRIKVGYEMFDKVPYMQIRENNWTLNANMKGKWNLRYDL	not soluble
MEVHKAITAHSRKQNESVKACLQLDAQREAAIEAAVSLASNGKEFSVDVINVVTKQINDLAKNGVTLQRKYVTEEMVMEYVSRLKKKEGR	not soluble
MEVPENLKNPQNARREGSNMKCLADYSVEKEVGEGSFSTVYLARRKEPKNDENPEVALKICLKRLILKNKMVPYIHREKEALALISREENAHPGIVTLYATFQDSESLYFVLEYAKYGDLCTLMQKQPDSKFNVADSRYYAANLLSALEHIHKLGIIHRDVKADNLLVKSDGRIMLTDFGSSKFLSDYQKIQENPVEEEQPTGRRSSFVGTAFFVTPELLTGSEMSPSSDLWAFSVTLYLFLTGIYPFNDMSEYLVFRRIQDILYTFSEDFPDENAKNLIERLLVKEQKSRLTSQEIKEHKFFESIDFEHLEQLEPPRIY	not soluble
MEVQFKNTRKGYYLNSERIELHKGDVVAVEANPGHDIGTVTLTGKLVKLQMRKHRYNTNNGEPFKIYRIAKQGDLDKYCEAKAREYDTMIQSRQISAELNLDMKIGDVEYQGDGNKAIFYYIADERVDFRQLIRVLAETFHIRVEMKQIGARQEAGRIGGIGPCGRQLCCSAWKMNFVSVNTSAARYQDLALNPQKLTGLCAKLKCCLNYEVDAYVEARKKMPSPEIVLETKESAYHYFKADVFRREVSYSTVPNAPVNLTTISARRAFEVISQNKQGFKPVSLEYDDKKQSSGHELSDILTDNSLTRFDDALSRRRRRNGNGNRDFSDREKAGEPHRTPDSIQPTPRVRSSSRMPSREKSPRPEGGDRRENMRERSRGDARFARPYTNEGGSERMEGARRVVGSGRRPPRQSTPRQEDRQGERKEE	not soluble
MEVRFTRGKSAILERSLTRPKTEVSVSAFALLFSEMVQYCQSRVYSVSELQARLADMGQGVGASLLDVLVMREKNGKRETKVLNILLFIKVNVWKALFGKEADKLEQANDDDKTYYIIEKEPLINAYISVPKENSTLNCAAFTGGIVEAILTHSGFPAKVTVHWHKGTTLMIKFDESVIARDKALDGR	soluble
MEWKPNRADKTPVYKQIADYIERGISSGEFPSDSKLPSERMLAKELQVNRSTIVAAYEELKSLGVVERQKGSGTRVNTDIWGVSHKRIPNWGRYVEDGSFLPNVPLVQQIRTETQKDDLINLASGELSPELIPSDRFRTILSEKTFMENLGYDHPLGNEMLRKTIAAHVQQYKQIEADSSSILITSGAQQALNLIVQCLLKPGDAIAIEDPSYCFSLPMFKSAGLNIFHLPVDEHGMNPDDLIDLHKKHRIRMVFLNPDYQNPTGTVLSLARRKKILELSSEFGIPIVEDDPYSLISFNGEVNPTLKSMDQNGNVLYISSLSKIVASGLRIGWIIGPTRVIERLADAKQQVDFGHSVFTQWVANQFLESKDFHKHITILRGQLKQRRDVLIAELEGTLGDRVECFVPEGGIHVWCKVKGKFDEYHLLGESIQNGVAFVPGSVLGSKNEYIRFTFGRANIEQIQLGIKRFADTLNEIS	not soluble
MEYQHWLREAISQLQASESPRRDAEILLEHVTGRGRTFILAFGETQLTDEQCQQLDALLTRRRDGEPIAHLTGVREFWSLPLFVSPATLIPRPDTECLVEQALARLPEQPCRILDLGTGTGAIALALASERPDCEIIAVDRMPDAVSLAQRNAQHLAIKNIHILQSDWFSALAGQQFAMIVSNPPYIDEQDPHLQQGDVRFEPLTALVAADSGMADIVHIIEQSRNALVSGGFLLLEHGWQQGEAVRQAFILAGYHDVETCRDYGDNERVTLGRYYQ	soluble
MEYSHLIPEASHAQTSFGLLYMWANDYEYGVFIDDDTLPHEDADFFGTHMSNLAFEGEIETVSSDEQWVNVLYQNEDEHGLYPRGYPYAAMDETVATEATQVNDVVASQGLWTNVPDLDAVRILMDGDLQGQAQTRTSGADFGDDFVAAEGQYLTVCSMNLAFRREVIPAFYQLPMDDNEWDVGRFDDIWSGVFLKRACDVLGKQIYNGDPLCEHNKAPRSTFSDLTNEVHGLELNEHVWEIVDEAGADADSYAEVFDAIATAMADGDFSDWENGAFLNYCGEFMLDWLECLDELDAAATELEHHHHHH	soluble
MFARDIGIDLGTANVLIHVKGKGIVLNEPSVVAIDRNTGKVLAVGEEARSMVGRTPGNIVAIRPLKDGVIADFEITEAMLKYFINKLDVKSFFSKPRILICCPTNITSVEQKAIREAAERSGGKTVFLEEEPKVAAVGAGMEIFQPSGNMVVDIGGGTTDIAVLSMGDIVTSSSIKMAGDKFDMEILNYIKRKYKLLIGERTSEDIKIKVGTVFPGARSEELEIRGRDMVTGLPRTITVCSEEITEALKENAAVIVQAAKGVLERTPPELSADIIDRGVILTGGGALLHGIDMLLAEELKVPVLIAENPMHCVAVGTGIMLENIDKLPRRALK	not soluble
MFCEKAMELIRELHRAPEGQLPAFNEDGLRQVLEEMKALYEQNQSDVNEAKSGGRSDLIPTIKFRHCSLLRNRRCTVAYLYDRLLRIRALRWEYGSILPNALRFHMAAEEMEWFNNYKRSLATYMRSLGGDEGLDITQDMKPPKSLYIEVRCLKDYGEFEVDDGTSVLLKKNSQHFLPRWKCEQLIRQGVLEHILS	soluble
MFDKKLSSNDWHIQKVEMNHQVYDIETMLADSAFREHEEEQDSSLNTALPEDKTAIEAKEQEQKEKRKRWYELFKKKPKPKSSMGEFVFDQKENRIYGKGYCNRYFASYVWQGDRHIGIEDSGISRKVCKDEHLMAFELEFMENFKGNFTVTKGKDTLILDNQKMKIYLKTP	not soluble
MFEAKLANAGLLKKIVESIKDLVTDAPFDCSETAMSLQAMDSSHVALVSLKLEVGLFDTYRCDRTINLGLSLANMSKALKCANNDDTCMLKYEENEGDSIIFTFADPKRDKTQDVTVKMMDIDSEHLGIPDQDYAVVCEMPAGEFQKTCKDLSTFSDSLNITATKAGIVFTGKGDIGSSVVTYSPSSNTDDETEAVTLEVKDPVNVNFSIKYMNQFTKATALSDRVRLSLCNDVPVVVEYPIEENGYLRFYLAPKIDDDENMD	soluble
MFEHLCNIDDMTIIGQRSNPLNEDWNEWTLVICTKCKKVYEWQHHSEEQMHGGDLAITAIATDDYLHHKYNINEQDIPQILNKKKKIRRYDRYKKIYLEDYV	not soluble
MFEITRPPGVRAHVGVIGGSGLYDPGIVENPVEVKVSTPYGNPSDFIVVGDVAGVKVAFLPRHGRGHRIPPHAINYRANIWALKALGVKWVISVSAVGSLREDYRPGDFVVPDQFIDMTKNRRHYTFYDGPVTVHVSMADPFCEDLRQRLIDSGRRLGYTVHERGTYVCIEGPRFSTRAESRVWKDVFKADIIGMTLVPEINLACEAQLCYATLAMVTDYDVWADRPVTAEEVERVMISNVERARRMLYDVIPKLAGEPELERCSCCRALDTAAI	soluble
MFEKVKVSTCFHVTLLKDYIVFYVSNNLNFASRWPRRRRGQRLLPTALRAMMLNPTEALLAEVSKARTSGARITVEEFIPIYKKVEAACGRSTTLKEFQTLLSHFDREGNGQIMLMELKSMLQNGGEKMTNQEARALKPATGLDTIYRNLNFNHKFTLDHSAIGFLRTNQFFDVQMIPVSRFFTVQDPSNALLSYTQKGIDFFEKLGQFSKEKAAIEEEYSTKLRSLAKKYAKKSEEDDEILKSVSYTSSFNSFLQQLDQIATRHQTSAEHIRGGVVSYVASKTCQMRSSRKNAINDLKTINDKLEDQINEMCKSGKCYLKSFKDAENSYQKFYKADKNLEISRLELEKARALANARNEACELAKQDYSALVRKTNAEQKRYHVELLPVIFARLKAVDKECIADMRQVLQKIVSFDDSLADSTEECRKIMQREVGKIDAEGDAQLVLKSVEATIEQPAPFEIEDLGDPKNCDSRTNDSADGSGGKLLKSSPSKNRIIRNFLGILKEKEADEKPEASNNDQLMYTDKSKPAHVRLSCLRSKIRDMEKQLEQAIQGREGITRLQQAYYTNPQHGNPSACTEPLISYAKKIEKLKMDIHNLKEFYAMLEMSVEEGQERSFGGRDTPDTTRSMSGSSTNQSSSKTIEDVLSGEAGNSSSADDSSKNILRQLFTTPKRLISSPKTSKSSTPTPLRRRAEISSPKILRSSFSGAIRKSLSTPDSVKVETAVTVTALFEFAKSSAETMSIEQGEILLVLEHDHGDGWTRTKNCRKHNEESGFVPTSYLQFPQ	soluble

From the DeepSol protein solubility set
